Read-outs that look alike come from different tables or passages of the source. Positions of bridges follow the written chain, without caps; N, C: chain ends. Non-standard residues stand in square brackets, D forms with d. Residues, ends and D or L forms follow the SMILES beside them. No end group written: not given here.
Columns and labels:
[1] = test system: Plexin B1; experiment: Ka (µM^-1s^-1)
Text: (§1) Table printed on a drawing sheet, FIG. 2
Head of the field: Ka (µM^-1s^-1)
(§2) The sequences from top to bottom are SEQ ID NO: 40, SEQ ID NO: 31, SEQ ID NO: 37, SEQ ID NO: 30, SEQ ID NO: 38, and SEQ ID NO: 39.
(§3) First copying reader's note: The sequences are only the variable region of the cyclic scaffold drawn in panel b, DW(Variable region)CS-NH2 closed by a thioether bridge.
(§4) Where the first naming reader finds the target: description_of_the_figure: the respective amino acid sequence of the cyclic peptides and their binding affinity to Plexin B1

[2] = test system: Plexin B1; experiment: Kd (s^-1)
Text: as §1
Head of the field: Kd (s^-1)
as §2, §3, §4

[3] = biological target: Plexin B1; experiment: KD (nM)
Text: as §1
(§5) Head of the field: KD (nM)
as §2, §3, §4

[4] = test system: Plexin B1; experiment: kd (s^-1)
Protocol: (§6) Table printed on a drawing sheet, FIG. 11
Head of the field: kd (s^-1)
(§7) First copying reader's note: Panel a of FIG. 11; the BC8 row is highlighted with a frame on the sheet.
(§8) Where the first naming reader finds the target: passage: its binding affinity to Plexin B1 was analyzed by surface resonance plasmon (SPR) (FIG. 11a)

[5] = biological target: Plexin B1; experiment: KD (nM); remark: listed apart in the source
Protocol: as §6, §5, §7, §8

[6] = biological target: Plexin B1; experiment: KD (nM); remark: listed apart in the source
Text: (§9) Table printed on a drawing sheet, FIG. 13
as §5
(§10) First copying reader's note: Panel b of FIG. 13; panel a is a bar chart and is left out.

[7] = test system: Plexin B1; experiment: ka (μM^-1s^-1)
Text: as §9
Head of the field: ka (μM^-1s^-1)
as §10

[8] = test system: Plexin B1; experiment: kd (ms^-1)
Text: as §9
Head of the field: kd (ms^-1)
as §10

[9] = biological target: T1, mouse Plexin B1 and Semaphorin 4D (Mus musculus, UniProt Q8CJH3); experiment: in vitro pulldown assay of mouse Plexin B1 / Semaphorin 4D interaction (AP activity); type: biochemical; details: compared with cyclic peptide P6
T1 sequence (Q8CJH3 20-535 limits assumed): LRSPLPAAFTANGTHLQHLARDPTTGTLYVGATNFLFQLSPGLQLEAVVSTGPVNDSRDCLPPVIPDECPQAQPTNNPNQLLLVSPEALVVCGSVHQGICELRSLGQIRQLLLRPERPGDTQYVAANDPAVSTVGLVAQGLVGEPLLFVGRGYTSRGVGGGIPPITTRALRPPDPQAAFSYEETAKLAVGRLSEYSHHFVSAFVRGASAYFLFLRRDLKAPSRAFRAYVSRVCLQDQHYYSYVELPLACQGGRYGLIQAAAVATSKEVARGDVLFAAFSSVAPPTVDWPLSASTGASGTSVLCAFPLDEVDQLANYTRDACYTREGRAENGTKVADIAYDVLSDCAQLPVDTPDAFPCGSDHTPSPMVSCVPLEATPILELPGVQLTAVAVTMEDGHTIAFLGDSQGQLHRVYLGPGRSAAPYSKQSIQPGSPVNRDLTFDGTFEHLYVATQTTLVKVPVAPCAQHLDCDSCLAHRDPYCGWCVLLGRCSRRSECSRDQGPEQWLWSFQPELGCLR
Protocol: The effect of the cyclic peptides shown in FIG. 2c on protein-protein interaction (PPI) of Plexin B1 and Semaphorin 4D was studied by in vitro pulldown assay (FIG. 3). • 1. Plexin B1 or Plexin A2 was immobilized on Sepharose beads. • 2. A cyclic peptide that bound to Plexin B1, a negative control peptide, or dimethylsulfoxide (DMSO) was added to Plexin-B1-immobilized beads. • 3. An alkali phosphatase (AP)-fused protein of Semaphorin 4D or Semaphorin 6A was added. • 4. After washing of the resulting beads, an increase in absorbance of the sample was measured at 405 nm to determined AP activity.
High AP activity relates to high interaction (5) between Semaphorin and Plexin and low AP activity relates to […] interaction (6) between Semaphorin and Plexin.

[10] = stability test with serum protease; type: in vitro ADME; details: degradation by serum protease
Protocol: A stability test, with serum protease, of the cyclic peptide P6 and the cyclic peptide having an intramolecular lactam bridge structure was performed (FIG. 11c).

[11] = biological target: T2, human Plexin B1 (human, UniProt O43157 20-535, limits assumed); experiment: SPR
T2 sequence (looked up): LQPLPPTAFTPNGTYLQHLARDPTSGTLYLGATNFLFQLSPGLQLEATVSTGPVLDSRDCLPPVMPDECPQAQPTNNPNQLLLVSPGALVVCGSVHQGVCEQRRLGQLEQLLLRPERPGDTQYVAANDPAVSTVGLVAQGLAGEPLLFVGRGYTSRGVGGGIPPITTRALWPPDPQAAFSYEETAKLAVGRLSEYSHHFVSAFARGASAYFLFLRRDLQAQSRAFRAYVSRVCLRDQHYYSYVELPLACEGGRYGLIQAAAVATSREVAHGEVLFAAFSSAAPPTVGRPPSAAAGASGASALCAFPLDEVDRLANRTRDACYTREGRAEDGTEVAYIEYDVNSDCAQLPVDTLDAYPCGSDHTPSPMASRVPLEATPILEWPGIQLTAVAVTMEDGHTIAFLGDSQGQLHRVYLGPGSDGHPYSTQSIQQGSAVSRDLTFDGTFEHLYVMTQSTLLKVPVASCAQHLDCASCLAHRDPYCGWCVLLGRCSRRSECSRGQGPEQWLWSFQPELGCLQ

[12] = biological target: T2, human Plexin B1; experiment: SPR; remark: listed apart in the source
[13] = biological target: T2, human Plexin B1; experiment: SPR; remark: listed apart in the source
[14] = biological target: T3, mouse Plexin B1 (mouse, UniProt Q8CJH3 20-535, limits assumed); experiment: SPR
T3 sequence (looked up): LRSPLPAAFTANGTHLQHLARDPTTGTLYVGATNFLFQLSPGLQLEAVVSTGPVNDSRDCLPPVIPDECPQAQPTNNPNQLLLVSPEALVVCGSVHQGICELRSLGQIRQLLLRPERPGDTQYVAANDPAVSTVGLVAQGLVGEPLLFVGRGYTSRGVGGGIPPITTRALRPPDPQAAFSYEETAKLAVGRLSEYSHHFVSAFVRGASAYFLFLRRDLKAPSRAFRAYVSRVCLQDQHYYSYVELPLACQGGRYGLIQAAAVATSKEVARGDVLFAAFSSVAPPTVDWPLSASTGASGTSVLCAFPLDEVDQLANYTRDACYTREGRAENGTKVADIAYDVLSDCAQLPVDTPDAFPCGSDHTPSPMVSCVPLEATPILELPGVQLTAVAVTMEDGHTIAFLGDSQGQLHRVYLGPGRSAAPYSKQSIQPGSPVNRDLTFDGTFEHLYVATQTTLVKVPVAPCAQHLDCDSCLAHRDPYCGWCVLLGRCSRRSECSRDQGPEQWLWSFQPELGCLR

## NGTLSWQTYSHL [P8]
[1]
  Ka: 53000 M⁻¹ s⁻¹
[2]
  Kd: 0.037 s⁻¹
[3]
  Kd: 0.689 µM

## wRPRVARWTGQITYC [P6]
[1]
  Ka: 3.46e+06 M⁻¹ s⁻¹
[2]
  Kd: 0.012 s⁻¹
[3]
  Kd: 0.0035 µM
[4]
  kd: 0.0151 s⁻¹
[5]
  Kd: 0.00381 µM
[6]
  Kd: 0.00334 µM

## P6dPEG5: dimerized cyclic peptide P6 (FIG. 12b) ({CH2CO}-[dW]RPRVARWTGQIIYCS; thioether N-15; also: dimer: two units joined after S16 by PEG linkers)
[7]
  ka: 1.18e+06 M⁻¹ s⁻¹
[8]
  kd (ms^-1): 0.447 ms^-1

## RPRAARWTGQIIY (not fully specified) [P5]
[1]
  Ka: 21000 M⁻¹ s⁻¹
[2]
  Kd: 0.002 s⁻¹
[3]
  Kd: 0.0771 µM

## CC(C)[C@@H]1NC(=O)[C@H](Cc2ccc(O)cc2)NC(=O)[C@H](Cc2ccccc2)NC(=O)[C@H]([C@@H](C)O)NC(=O)CNC(=O)[C@H]([C@@H](C)O)NC(=O)[C@H](Cc2c[nH]c3ccccc23)NC(=O)[C@H](CCCNC(=N)N)NC(=O)[C@H](CC(=O)O)NC(=O)[C@H](Cc2ccc(O)cc2)NC(=O)[C@H](Cc2ccccc2)NC(=O)[C@H](Cc2c[nH]c3ccccc23)NC(=O)[C@H](CCCNC(=N)N)NC(=O)[C@@H](Cc2c[nH]c3ccccc23)NC(=O)CSC[C@@H](C(=O)NCC(N)=O)NC1=O [mp6-2, wRWFYDRWTGTFYVC] ({CH2CO}-[dW]RWFYDRWTGTFYVCG-NH2; thioether N-15)
[9]
  interaction inhibiting activity between mouse Plexin B1 and Semaphorin 4D: equivalent to that of the cyclic peptide P6

## RVRVERWTGKLI (not fully specified) [P3]
[1]
  Ka: 4.27e+06 M⁻¹ s⁻¹
[2]
  Kd: 0.144 s⁻¹
[3]
  Kd: 0.0337 µM

## CC[C@H](C)[C@@H]1NC(=O)[C@H](CCC(N)=O)NC(=O)CNC(=O)[C@H]([C@@H](C)O)NC(=O)[C@H](Cc2c[nH]c3ccccc23)NC(=O)[C@H](CCCNC(=N)N)NC(=O)[C@H](C)NC(=O)[C@H](C(C)C)NC(=O)[C@H](CCCNC(=N)N)NC(=O)[C@@H]2CCCN2C(=O)[C@H](CCCNC(=N)N)NC(=O)[C@@H](Cc2c[nH]c3ccccc23)NC(=O)CSC[C@@H](C(=O)N[C@@H](CO)C(N)=O)NC(=O)[C@H](Cc2ccc(O)cc2)NC(=O)[C@H]([C@@H](C)CC)NC1=O [P6, wRPRVARWTGQITYC] ({CH2CO}-[dW]RPRVARWTGQIIYCS-NH2; thioether N-15 (inferred); N-terminus and C-terminus assumed)
[10]
  half-life: 3 to 6 h

## AVSNLPPRPHITYIE [P1]
[1]
  Ka: 20000 M⁻¹ s⁻¹
[2]
  Kd: 0.014 s⁻¹
[3]
  Kd: 0.701 µM

## {CH2CO}-[dW]RPRAARWTGQIIYCS (thioether N-15) [SEQ ID NO 37]
[11]
  Kd: 0.0771 µM
  koff: 0.002 s⁻¹
  kon: 21000 M⁻¹ s⁻¹

## {CH2CO}-[dW]AVSNLPPRPHITYIECS (thioether N-17) [SEQ ID NO 40]
[11]
  Kd: 0.701 µM
  koff: 0.014 s⁻¹
  kon: 20000 M⁻¹ s⁻¹

## {CH2CO}-[dW]RVRVERWTGKLICS (thioether N-14) [SEQ ID NO 31]
[11]
  Kd: 0.0337 µM
  koff: 0.144 s⁻¹
  kon: 4.27e+06 M⁻¹ s⁻¹

## {CH2CO}-[dW]NGTLSWQTYSHLCS (thioether N-14) [SEQ ID NO 39]
[11]
  Kd: 0.689 µM
  koff: 0.037 s⁻¹
  kon: 53000 M⁻¹ s⁻¹

## {CH2CO}-[dW]RPRVARWTGQIIYCS (thioether N-15; also: dimer, two units joined after S16 by PEG linkers, also called dimerized cyclic peptide P6) [P6dPEG5]
[12]
  Kd: 0.00038 µM
  kon: 1.18e+06 M⁻¹ s⁻¹

## {CH2CO}-[dW]RPRVARWTGQIIYCS (thioether N-15) [SEQ ID NO 30]
[11]
  Kd: 0.0035 µM
  koff: 0.012 s⁻¹
  kon: 3.46e+06 M⁻¹ s⁻¹

## {CH2CO}-[dW]RAFIERWTGRLVVCG (thioether N-15) [cyclic peptide mp6-7]
[13]
  Kd: 0.00458 µM
[14]
  Kd: 0.126 µM

## {CH2CO}-[dW]LAYIERWTGQIVRCG (thioether N-15) [cyclic peptide mp6-5]
[13]
  Kd: 0.174 µM
[14]
  Kd: 0.507 µM

## {CH2CO}-[dW]LGYIARWTGTVVKCG (thioether N-15) [cyclic peptide mp6-3]
[13]
  Kd: 0.241 µM
[14]
  Kd: 0.227 µM

## {CH2CO}-[dW]NSNVLSWQTYSWYCS (thioether N-15) [SEQ ID NO 38]
[11]
  Kd: 0.275 µM
  koff: 0.01 s⁻¹
  kon: 38000 M⁻¹ s⁻¹
